# Laboratory results taken from US20250230217A1.
# Target: mesothelin-Fc fusion protein (human) (UniProt Q13421)
# Assay: cell-based or functional assay
# Chain of UniProt Q13421 (Q13421 other isoform, or with tags, fused parts or gaps limits assumed): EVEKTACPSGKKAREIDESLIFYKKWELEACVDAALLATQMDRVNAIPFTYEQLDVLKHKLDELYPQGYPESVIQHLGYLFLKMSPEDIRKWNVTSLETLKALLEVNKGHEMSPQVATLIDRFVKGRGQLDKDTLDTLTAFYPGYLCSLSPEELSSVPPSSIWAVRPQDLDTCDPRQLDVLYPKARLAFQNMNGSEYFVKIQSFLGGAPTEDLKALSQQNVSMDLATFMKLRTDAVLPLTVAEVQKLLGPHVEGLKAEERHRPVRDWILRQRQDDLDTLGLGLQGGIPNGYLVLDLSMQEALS
Total Population Doublings (donor 1) (population doublings),Total Population Doublings (donor 2) (population doublings),Total Population Doublings (donor 3) (population doublings),Substance
5.8,6.9,6,"mesothelin-specific 28z CAR (SS1 scFv, CD28 and CD3z domains)"
8.8,8.4,8.4,"mesothelin-specific BBz CAR (SS1 scFv, 4-1BB and CD3z domains)"
